Here are results for 25 molecules from patent publication US20250163167A1 (SYNTHEKINE, published 2025).

The chains are these.
T1: hIL10Ra-his (Sino Biological, Catalog#10419) (human, UniProt Q13651 22-235)
T1 construct: Bought; also called Sino Biological cat#10419-H08H; not shown: C-terminal poly-His tag
T1 sequence: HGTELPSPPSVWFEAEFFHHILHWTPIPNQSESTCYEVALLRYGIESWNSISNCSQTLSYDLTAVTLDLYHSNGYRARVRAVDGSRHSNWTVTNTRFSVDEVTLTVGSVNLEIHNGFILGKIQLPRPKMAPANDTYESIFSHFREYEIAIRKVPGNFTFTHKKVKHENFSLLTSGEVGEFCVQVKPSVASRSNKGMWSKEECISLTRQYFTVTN

T2: hIL10Rb ECD antigen (human, UniProt Q08334 20-220)
T2 construct: Antigen of biopanning and PE-ELISA; also called extracellular domain of hIL10Rb
T2 sequence: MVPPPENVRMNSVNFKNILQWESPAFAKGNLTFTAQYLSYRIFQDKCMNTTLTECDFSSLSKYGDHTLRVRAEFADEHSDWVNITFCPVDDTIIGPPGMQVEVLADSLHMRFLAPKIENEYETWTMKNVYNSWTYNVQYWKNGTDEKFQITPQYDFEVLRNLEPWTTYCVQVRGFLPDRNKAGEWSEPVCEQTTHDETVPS

T3: hIL10Ra ECD antigen (human, UniProt Q13651 22-235)
T3 construct: also called ECD of IL10Ra; extracellular domain of hIL10Ra
T3 sequence: T1 sequence

B1: hIL-10Ra_VHH12 Mono-Fc (Fc fusion)
chain: QVQLQESGGGSVQAGGSLRLSCTVSGYTYSSNCMGWFRQAPGKEREGVATIYTGGGNTYYADSVKGRFTISQDNAKNTVYLQMNNLKPEDTAMYYCAAEPLSRVYGGSCPTPTFDYWGQGTQVTVSS
notes: Mono-Fc VHH captured on Protein A; not shown: mono-Fc part
B2: hIL-10Ra_VHH9 Mono-Fc (Fc fusion)
chain: QVQLQESGGGSVQAGGSLRLSCAVSGYAYSTYCMGWFRQAPGKEREGVAAIDSGGSTSYADSVKGRFTISKDNAKNTLYLRMNSLKPEDTAMYYCAAVPPPPDGGSCLFLGPEIKVSKADFRYWGQGTQVTVSS
notes: as for B1
B3: hIL-10Ra_VHH6 Mono-Fc (Fc fusion)
chain: QVQLQESGGGSVQAGGSLRLSCAASRFTYSSYCMGWFRQAPGKEREGVASIDSDGSTSYTDSVKGRFTISKDNAKNTLYLQMNSLKPEDTAMYYCALDLMSTVVPGFCGFLLSAGMDYWGKGTQVTVSS
notes: as for B1
B4: hIL-10Ra_VHH10 Mono-Fc (Fc fusion)
chain: QVQLQESGGGSVQAGGSLRLSCAASRYLYSIDYMAWFRQSPGKEREPVAVIYTASGATFYPDSVKGRFTISQDNAKMTVYLQMNSLKSEDTAMYYCAAVRKTDSYLFDAQSFTYWGQGTQVTVSS
notes: as for B1
B5: hIL-10Ra_VHH8 Mono-Fc (Fc fusion)
chain: QVQLQESGGGSVQAGGSLRLSCAASGYTYSMYCMGWFRQAPGKEREGVAQINSDGSTSYADSVKGRFTISKDNAKNTLYLQMNSLKPEDTAMYYCAADSRVYGGSWYERLCGPYTYEYNYWGQGTQVTVSS
notes: as for B1
B6: hIL10Rb VHH-17 (VHH)
VHH: QVQLQESGGGSVQAGGSLRLSCTVSRYTASVNYMGWFRQAPGKEREGVATIFTGAGTTYYANSVKGRFTISRDNAKNTAYLQMNSLKPEDTAMYYCAVDFRGGLLYRPAYEYTYRGQGTQVTVSS
notes: Phage clone, periplasmic extract
B7: hIL10Rb VHH-5 (VHH)
VHH: QVQLQESGGGLVQPGGSLRLSCAASGYTYSSYCMGWFRQAPGKEREGVAHIDSDGSTTYADSVKGRFTISKDNAKNTLYLQMNSLKPEDTAMYYCAADPIPGPGYCDGGPNKYWGQGTQVTVSS
notes: as for B6
B8: hIL10Rb VHH-25 (VHH)
VHH: B7 VHH with L11S, P14A, V48I, K112N
notes: as for B6
B9: hIL10Rb VHH-20 (VHH)
VHH: B7 VHH with L11S, P14A, T68A
notes: as for B6
B10: hIL10Rb VHH-24 (VHH)
VHH: B7 VHH with L11S, P14A, R19K, K112N
notes: as for B6
B11: hIL10Rb VHH-22 (VHH)
VHH: B7 VHH with L11S, P14A, Y29D, S31R, Q39K, T58S
notes: as for B6
B12: hIL10Rb VHH-10 (VHH)
VHH: B7 VHH with T68A
notes: as for B6
B13: hIL10Rb VHH-13 (VHH)
VHH: B7 VHH with L11S, P14A, T58S, K112N
notes: as for B6
B14: hIL10Rb VHH-18 (VHH)
VHH: QVQLQESGGGSVQAGGSLRLSCAASGDTYSSYCMGWFRQAPGKEREGVAFIDSDGSTRYADSVEGRFTISKDNAKNTLYLQMNSLKPEDTAMYYCAAEPYCSGGYHRKEMAEFGYWGQGTQVTVSS
notes: as for B6
B15: hIL10Rb VHH-23 (VHH)
VHH: QVQLQESGGGSVQAGGSLRLSCAASGYTYSSYCMGWFRQAPGKEREGVAAIDSDGSTRYADSVKGRFTISKDNAKKILYLQMNSLKVEDTAMYYCAAEPYCSGGYKRTMVAEFGFWGQGTQVTVSS
notes: as for B6
B16: hIL10Ra VHH11 (VHH)
VHH: QVQLQESGGGSVQAGGSLRLSCGASRYTYSSYCMGWFRQAPGKEREGVAVIDSDGSTSYADSVKGRFTISKDNGKNTLYLQMNSLKPEDTAMYYCAADLGHYRPPCGVLYLGMDYWGKGTQVTVSS
notes: as for B6
B17: hIL10Ra VHH15 (VHH)
VHH: B16 VHH with R26G, S31G
notes: as for B6
B18: hIL10Ra VHH16 (VHH)
VHH: QVQLQESGGGSVQAGGSLRLACAASRYTYSNYCMGWFRQAPGKEREGVATIDSDGNTSYADSVKGRFTISRDNAKNTLYLQMNSLKPGDTAMYYCAADLGHYRPPCGAYYYGMDYWGKGTQVTVSS
notes: as for B6
B19: hIL10Ra VHH18 (VHH)
VHH: B1 chain with T23A, S30N, G55V, N57S, N85S, D115G
notes: as for B6
B20: hIL10Ra VHH7 (VHH)
VHH: B1 chain with T23A, Y29F, S30N, G55V, N57S, N85S, D115G
notes: as for B6
B21: hIL10Ra VHH13 (VHH)
VHH: B1 chain with T23A, T28S, Y52H, N57S, N85S, V104L, D115G
notes: as for B6
B22: hIL10Ra VHH2 (VHH)
VHH: B4 chain with A23V, I31T, D32N, P47A, F59L, P61T, S85R
notes: as for B6
B23: hIL10Ra VHH3 (VHH)
VHH: B4 chain with V12I, A23V, I31T, D32N, P47A, F59L, P61T, S85R
notes: as for B6
B24: hIL10Ra VHH4 (VHH)
VHH: B4 chain with V12I, V48A
notes: as for B6
B25: hIL10Ra VHH5 (VHH)
VHH: QVQLQESGGGSIQAGGSLRLSCVASKYLYSTNYMAWFRQSPGKEREAVAAIYTASGATLYSDSNKGRFTISQDNAKMTVYLQMNSLKSEDTAMYYCAAVRKTGSYLFDAQSFTYWGQGTQVTVSS
notes: as for B6

Substitutions are numbered along the chain they refer to.

The first test addresses T1, hIL10Ra-his (Sino Biological, …). Briefly: SPR; ratio of experimental to calculated Rmax. An excerpt:
(§1) To confirm and evaluate binding affinities of the binding of the IL10Ra sdAbs, a representative example from each clonotype generated was selected for evaluation of binding via SPR. […] Buffer-subtracted sensograms were processed with Biacore T200 Evaluation Software and globally fit with a 1:1 Langmuir binding model (bulk shift set to zero) to extract kinetics and affinity constants (kₐ, kd, KD). RMAX<100 RU indicates surface density compatible with kinetics analysis. Calculated Rₘₐₓ values were generated using the equation: Rₘₐₓ=Load (RU)×valency of ligand×(Molecular weight of analyte/Molecular weight of ligand). Surface activity was defined as the ratio of experimental/calculated Rmax.
(§2) One representative example from each clonotype of IL10a generated in accordance with Examples 1-3 was selected for evaluation of binding via SPR as follows. […] All experiments were conducted in 10 mM Hepes, 150 mM NaCl, 0.05% (v/v) Polysorbate 20 (PS20) and 3 mM EDTA (HBS-EP+ buffer) on a Biacore T200 instrument equipped with a Protein A derivatized sensor chip (Cytiva). Mono-Fc VHH ligands were flowed at 5 μl/min for variable time ranging from 18 to 300 seconds, reaching the capture loads listed in the tables below. Following ligand capture, injections of a 2-fold dilution series of the extracellular domain of the IL2Rb-receptor modified to incorporate a C-terminal poly-His sequence, typically comprising at least five concentrations between 1 μM and 1 nM, were performed in either high performance or single cycle kinetics mode. Surface regeneration was achieved by flowing 10 mM glycine-HCl, pH 1.5 (60 seconds, 50 μL/min).
Take B1: the “Surface Activity” value was 73%.
On the same count and under the same terms, the value for B2 was 66%; that for B3 was 83%; that for B4 was 57%.
With B5, the “Surface Activity” value is 57%.

For a further test the target is unchanged. Briefly: SPR Biacore T200; mono-Fc VHH captured on Protein A chip, hIL10Ra-his analyte; 1:1 Langmuir fit.
Excerpt: as §1
as §2, with “[…],” for “injections of a 2-fold dilution series of the extracellular domain of the IL2Rb-receptor modified to incorporate a C-terminal poly-His sequence,”
On to B1, for which binding was characterised by a dissociation constant (Kd) of 7.7 nM; the koff (in general, a measure of how fast the partners let go of each other) worked out at 0.00119 s⁻¹; the on-rate constant (kon) – broadly, a measure of how fast the partners come together – was found to be 154000 M⁻¹ s⁻¹.
For B2, in that order: 11.6 nM, 0.00115 s⁻¹ and 99700 M⁻¹ s⁻¹.
For B3, in that order: 1.8 nM, 0.00019 s⁻¹ and 106000 M⁻¹ s⁻¹.
The corresponding values for B4 are 13.4 nM, 0.00139 s⁻¹ and 104000 M⁻¹ s⁻¹.
B5: binding was put at a Kd of 6.4 nM, the dissociation rate constant (koff) came to 0.00107 s⁻¹ and the association rate constant (kon) was found to be 168000 M⁻¹ s⁻¹.

A further test deals with T2, hIL10Rb ECD antigen. Briefly: periplasmic extract ELISA (PE-ELISA) of phage clones. In general terms: An ELISA detects its analyte on a solid surface through an enzyme-linked reagent.
Turning to B6, the binding result was “binds”.
The same measure, in the same setting: the value for B7 was “binds”.
As for B8, the binding result is recorded as “binds”.
For the molecule B9, the binding result is “binds”.
As for B10, the binding result was “binds”.
As to B11, the binding result is recorded as “binds”.
On the same count and under the same terms, the value for B12 was “binds”.
Same read-out and setting: the value for B13 was “binds”; that for B14 was “binds”.
Consider B15, for which the binding result is listed as “binds”.

Another test has as its target T3, hIL10Ra ECD antigen. The description is as above.
Turning to B16, the binding result is given as “binds”.
Turning to B17, the binding result is given as “binds”.
The same measure, in the same setting: the value for B18 was “binds”; that for B19 was “binds”; that for B20 was “binds”.
Still for that read-out and setting: the value for B21 was “binds”; that for B22 was “binds”; that for B23 was “binds”.
On to B24, for which the binding result is “binds”.
Same read-out and setting: the value for B25 was “binds”.
